In PMC11018626, “Sm-like protein Rof inhibits transcription termination factor ρ by binding site obstruction and conformational insulation” (Nature Communications, 2023):
Positions count from the first letter of the chain named. Numbers in names are those of the source. Each block holds one binder with its values, some of them ahead of it.

Columns and labels:
[1] = target: T1, Rho (transcription termination factor) (Escherichia coli, UniProt P0AG30 1-419); test: fluorescence anisotropy; 2 mM ADP-BeF3, 10 µM unlabeled dC15 blocking PBS; SBS binding / ring closure; Anisotropy: 20 mM Na-HEPES pH 7.5, 150 mM KCl, 5% glycerol, 5 mM MgCl2, 0.5 mM TCEP; 5 µM FAM-dC15 or 2 µM FAM-rU12; temperature not stated; conditions: protein: recombinant; chain copies: 6; label: 5'-FAM; single strand
[2] = target: T1, Rho (transcription termination factor); test: fluorescence anisotropy; 5 mM Mg2+; no Rof; PBS binding; Anisotropy: 20 mM Na-HEPES pH 7.5, 150 mM KCl, 5% glycerol, 5 mM MgCl2, 0.5 mM TCEP; 5 µM FAM-dC15 or 2 µM FAM-rU12; temperature not stated; conditions: protein: recombinant; chain copies: 6; label: 5'-FAM; single strand
[3] = target: T2, Transcription termination factor ρ F89S (E. coli) (E. coli, UniProt P0AG30 1-419, F89S); test: SEC; analytical SEC, Superdex S200 PC 3.2 column, 5 µM ρ and 90 µM Rof/variants mixed in reaction buffer (20 mM Tris-HCl pH 8.0, 120 mM KOAc, 5 mM Mg(OAc)2, 2 mM DTT), 32 °C 10 min, run at 4 °C; fractions analysed by SDS-PAGE; conditions: both partners purified
T2 construct: Transcription termination factor Rho, E. coli, with F89S

[4] = target: T3, Transcription termination factor ρ K115E (E. coli) (E. coli, UniProt P0AG30 1-419, K115E); test: as above; conditions: both partners purified
T3 construct: Transcription termination factor Rho, E. coli, with K115E

[5] = target: Transcription termination factor ρ, wild type (E. coli) (E. coli, UniProt P0AG30 1-419); test: cell-based or functional assay
Rho F89S = Rho F89S (Escherichia coli, UniProt P0AG30 1-419, F89S); test: analytical SEC; Anisotropy: 20 mM Na-HEPES pH 7.5, 150 mM KCl, 5% glycerol, 5 mM MgCl2, 0.5 mM TCEP; 5 µM FAM-dC15 or 2 µM FAM-rU12; temperature not stated; conditions: protein: recombinant; chain copies: 6; boxB hairpin
Rho R88E = Rho R88E (Escherichia coli, UniProt P0AG30 1-419, R88E); test: as above; conditions: protein: recombinant; chain copies: 6; boxB hairpin
[6] = target: T1, Rho (transcription termination factor); test: cryo-EM; ADP-BeF3; closed ring, 2.9 Å; Anisotropy: 20 mM Na-HEPES pH 7.5, 150 mM KCl, 5% glycerol, 5 mM MgCl2, 0.5 mM TCEP; 5 µM FAM-dC15 or 2 µM FAM-rU12; temperature not stated; conditions: protein: recombinant; chain copies: 6; boxB hairpin

Binder: UUUUUUUUUUUU (ssRNA) [rU12]
binding result [1]: binds

Binder: CCCCCCCCCCCCCCC (ssDNA) [dC15]
Kd [2]: 1000 nM

binding result [3]: binds
binding result [4]: binds
B1: Rof, wild type, tag-less (E. coli) (natural protein)
chain: MNDTYQPINCDDYDNLELACQHHLMLTLELKDGEKLQAKASDLVSRKNVEYLVVEAAGETRELRLDKITSFSHPEIGTVVVSES
notes: Rof (YaeO), E. coli; codon-optimised rof gene; the C-terminal residue is printed as S84 (84-residue form); the residue numbers used (I8 to S84) fit the 84-residue form; also called Rof^wt; ecRof; source: E. coli RIL (BL21), purified (Ni2+-NTA, TEV protease, Superdex 75)

transcripts terminated by ρ in vitro (λ tR1 template; 25 nM ρ, 5 µM Rof variant); 87% in the absence of Rof [5]: 25%
B2: Rof E17A (E. coli) (natural protein)
chain: B1 chain with E17A

transcripts terminated by ρ in vitro (λ tR1 template; 25 nM ρ, 5 µM Rof variant); 87% in the absence of Rof [5]: 90%
B3: Rof Y13A (E. coli) (natural protein)
chain: B1 chain with Y13A

transcripts terminated by ρ in vitro (λ tR1 template; 25 nM ρ, 5 µM Rof variant); 87% in the absence of Rof [5]: 86%
B4: Rof D14A (E. coli) (natural protein)
chain: B1 chain with D14A

B5: rut RNA (lambda tR1) (structured_RNA)
RNA: GGGAUAACCCCGCUCUUACACAUUCCAGCCCUGAAAAAGGGCAUCAAAUUAAACCACACCUAUGGUGUAUGUCAAAUUAAACCACA
binding result (Rho F89S): binds
binding result (Rho R88E): no binding
binding result [6]: binds
